Source: publication PMC6230950

Experiments:
[1] = biological target: murine TB‐PIGS (Ag85B fused to a truncated mouse γ2a chain and the IgM μ tailpiece), produced in wil (M. tuberculosis | mouse | not stated) (UniProt P9WQP1); assay: native gel or EMSA
[2] = biological target: human TB‐PIGS:ΔXF (Ag85B fused to a truncated human γ1 chain and the IgM μ tailpiece), produced in g (M. tuberculosis | human | not stated) (UniProt P9WQP1); assay: SPR; Biacore X100, HBS-EP+; TB-PIGS captured on protein A coupled to a CM5 chip; FcγR as analyte, 40 μL/min; affinity of one FcγR for a single arm
[3] = biological target: Human TB-PIGS produced in glyco-engineered ΔXF Nicotiana benthamiana (Mycobacterium tuberculosis | human | not stated) (UniProt P9WQP1); assay: SPR; Biacore X100; protein A on a CM5 chip, IgG or TB-PIGS captured; human CD32a as analyte, 4000 nM to 125 nM in 2-fold dilutions; HBS-EP+; 40 uL/min, contact 90 s; steady-state affinity analysis
[4] = biological target: Human TB-PIGS produced in wild-type Nicotiana benthamiana (Ag85B - truncated human γ1 chain - IgM tailpiece) (Mycobacterium tuberculosis | human | not stated) (UniProt P9WQP1); assay: as above
[5] = biological target: human TB‐PIGS (Ag85B fused to a truncated human γ1 chain and the IgM μ tailpiece), produced in wild‐type N. benthamiana (M. tuberculosis | human | not stated) (UniProt P9WQP1); assay: native gel or EMSA
[6] = biological target: Human TB-PIGS produced in wild-type Nicotiana benthamiana (Ag85B - truncated human γ1 chain - IgM tailpiece) (Mycobacterium tuberculosis | human | not stated) (UniProt P9WQP1); assay: SPR; Biacore X100; protein A on a CM5 chip, IgG or TB-PIGS captured; five-six concentrations of human CD16a as analyte; HBS-EP+; 40 uL/min, contact 90 s, dissociation 300 s; two-state binding interaction model
[7] = biological target: Murine TB-PIGS produced in glyco-engineered ΔXF Nicotiana benthamiana (Mycobacterium tuberculosis | mouse | not stated) (UniProt P9WQP1); assay: SPR; Biacore X100; protein A amine-coupled on a CM5 chip, IgG or TB-PIGS captured on it; CD64 (human or mouse) as analyte, 240 nM down to 1.875 nM in 1:2 dilutions; HBS-EP+; 40 uL/min, contact 135 s, dissociation 600 s; 1:1 model, but for human TB-PIGS from wild-type plants the 'Heterogeneous antibody with aglycosylation' model (two sets of values)
[8] = biological target: Murine TB-PIGS produced in wild-type Nicotiana benthamiana (Ag85B - truncated mouse γ2a chain - IgM tailpiece) (Mycobacterium tuberculosis | mouse | not stated) (UniProt P9WQP1); assay: as above

Molecule: murine TB‐PIGS (Ag85B fused to a truncated mouse γ2a chain and the IgM μ tailpiece), produced in wil (from UniProt P9WQP1 41-325) (Fc fusion)
- percent of the sample as polymers [1]: 5 to 20%

Molecule: human CD64 (FcγRI) (from UniProt P12314 16-292) (receptor)
- Kd [2]: 0.00041 µM

Molecule: human CD32a (FcγRIIa) (from UniProt P12318 34-217) (receptor)
- Kd [3]: 2.16 µM
- Kd [4]: 4.21 µM

Molecule: human TB‐PIGS (Ag85B fused to a truncated human γ1 chain and the IgM μ tailpiece), produced in wild‐type N. benthamiana (from UniProt P9WQP1 41-325) (Fc fusion)
- percent of the sample as polymers [5]: 35 to 60%

Molecule: human CD16a (FcγRIIIa) (from UniProt P08637 17-208) (receptor)
- Kd [2]: 0.0197 µM
- Kd [6]: 0.279 µM

B1: mouse CD64 (FcγRI) (receptor)
chain: EVVNATKAVITLQPPWVSIFQKENVTLWCEGPHLPGDSSTQWFINGTAVQISTPSYSIPEASFQDSGEYRCQIGSSMPSDPVQLQIHNDWLLLQASRRVLTEGEPLALRCHGWKNKLVYNVVFYRNGKSFQFSSDSEVAILKTNLSHSGIYHCSGTGRHRYTSAGVSITVKELFTTPVLRASVSSPFPEGSLVTLNCETNLLLQRPGLQLHFSFYVGSKILEYRNTSSEYHIARAEREDAGFYWCEVATEDSSVLKRSPELELQVLGPQSSAP
- Kd [7]: 0.0168 µM
- koff [7]: 0.0231 s⁻¹
- kon [7]: 1.38e+06 M⁻¹ s⁻¹
- Kd [8]: 0.05 µM
- koff [8]: 0.0248 s⁻¹
- kon [8]: 500000 M⁻¹ s⁻¹
